Substrate in series [1]: O=C[C@@H](O)CO
The experiment in a line: purified protein. To be noted: donor DHAP 60 mM, 50 mM TEA pH 7.5, 25 °C, apparent.

Substrate in series [2]: O=C(CO)CO
The experiment in a line: purified protein. As to conditions: acceptor varied 2-80 mM, donor DHAP 60 mM, 50 mM TEA pH 7.5, 25 °C, apparent.

Here are results for two proteins from paper PMC6202814.

A word on the Km: it is the substrate concentration at which the rate is half of its maximum. As usually defined, the Vmax is the top rate of the reaction or transport when substrate is in excess. As a reminder, the kcat is the number of substrate molecules converted per active site and unit of time at saturation. Broadly, the kcat/Km is the turnover number divided by the Michaelis constant.

B1: L-fuculose-1-phosphate aldolase (FucA) (Escherichia coli K-12) (protein)
chain: MERNKLARQIIDTCLEMTRLGLNQGTAGNVSVRYQDGMLITPTGIPYEKLTESHIVFIDGNGKHEEGKLPSSEWRFHMAAYQSRPDANAVVHNHAVHCTAVSILNRSIPAIHYMIAAAGGNSIPCAPYATFGTRELSEHVALALKNRKATLLQHHGLIACEVNLEKALWLAHEVEVLAQLYLTTLAITDPVPVLSDEEIAVVLEKFKTYGLRIEE
Regarding B1, in “purified protein [1]” (acceptor varied 0.5-60 mM), the Km stood at 54.1 ± 3.6 mM, the Vmax is 1.5 µmol/min/mg, the kcat amounted to 5 s⁻¹ and the specificity constant (kcat/Km) amounted to 92 M⁻¹ s⁻¹.

B2: L-rhamnulose-1-phosphate aldolase (RhaD) (Escherichia coli K-12) (protein)
chain: MQNITQSWFVQGMIKATTDAWLKGWDERNGGNLTLRLDDADIAPYHDNFHQQPRYIPLSQPMPLLANTPFIVTGSGKFFRNVQLDPAANLGIVKVDSDGAGYHILWGLTNEAVPTSELPAHFLSHCERIKATNGKDRVIMHCHATNLIALTYVLENDTAVFTRQLWEGSTECLVVFPDGVGILPWMVPGTDEIGQATAQEMQKHSLVLWPFHGVFGSGPTLDETFGLIDTAEKSAQVLVKVYSMGGMKQTISREELIALGKRFGVTPLASALAL
With B2, in “purified protein [2]”, the Km came out at 23.4 ± 9.69 mM, the Vmax was determined as 0.86 µmol/min/mg, the turnover number (kcat) is 4.1 s⁻¹ and the kcat/Km came to 180 M⁻¹ s⁻¹. Besides, in “purified protein [1]” (acceptor varied 0.2-60 mM), the Michaelis-Menten constant (Km) is reported as 40.8 ± 5.8 mM, the Vmax is 4.3 µmol/min/mg, the kcat came out at 20.5 s⁻¹ and the kcat/Km was 500 M⁻¹ s⁻¹.
